Results as given in article doi:10.1101/2020.10.08.332312 (bioRxiv, 2020).

Molecular target: T1, Trs31 (subunit of the recombinant TRAPPIII complex) (S. cerevisiae, UniProt Q03337 1-283)
T1 sequence: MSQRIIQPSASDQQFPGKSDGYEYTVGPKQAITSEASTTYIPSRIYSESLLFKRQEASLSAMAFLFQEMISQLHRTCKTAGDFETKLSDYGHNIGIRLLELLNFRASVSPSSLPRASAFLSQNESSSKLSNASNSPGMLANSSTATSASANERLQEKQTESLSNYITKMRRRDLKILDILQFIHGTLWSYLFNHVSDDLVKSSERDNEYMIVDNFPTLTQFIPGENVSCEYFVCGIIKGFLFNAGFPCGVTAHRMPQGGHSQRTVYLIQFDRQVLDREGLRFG
Assay: cryo-EM structure

- binding result: binds
B1: Ypt1-7xHis (yeast Rab1/Ypt1 with the two C-terminal cysteines replaced by an affinity tag) (natural protein)
chain: not shown
